According to PMC2744266, “The Ataxia (ax ^J) Mutation Causes Abnormal GABAA Receptor Turnover in Mice” (PLoS Genetics, 2009):

Molecular target: T1, GABAAR α1 subunit, full length, expressed in HEK293 cells (UniProt P62812 28-455)
T1 sequence (looked up): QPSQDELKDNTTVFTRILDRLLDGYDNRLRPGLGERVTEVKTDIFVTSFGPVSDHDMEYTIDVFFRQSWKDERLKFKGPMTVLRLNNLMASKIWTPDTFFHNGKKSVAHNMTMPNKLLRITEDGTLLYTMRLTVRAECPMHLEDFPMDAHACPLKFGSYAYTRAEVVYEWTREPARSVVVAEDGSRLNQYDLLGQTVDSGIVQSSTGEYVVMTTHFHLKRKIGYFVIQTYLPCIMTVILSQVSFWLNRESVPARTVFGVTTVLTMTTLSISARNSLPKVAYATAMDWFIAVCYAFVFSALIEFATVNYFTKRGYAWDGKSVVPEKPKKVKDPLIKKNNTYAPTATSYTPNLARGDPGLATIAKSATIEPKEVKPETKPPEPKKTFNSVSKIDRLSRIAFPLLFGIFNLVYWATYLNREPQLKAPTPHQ
Assay: cell-based or functional assay

GABAAR α1-GFP surface membrane levels (surface biotinylation, HEK293 cells expressing GABAAR α1-GFP and GABAAR β3) with the competing peptide mRFP-GABAAR α1(334–346) against mRFP: 2.5 fold
B1: Endogenous Usp14 protein derived from mouse brain lysates (enzyme, mouse (endogenous in brain), UniProt Q9JMA1 1-493, looked up)
chain: MPLYSVTVKWGKEKFEGVELNTDEPPMVFKAQLFALTGVQPARQKVMVKGGTLKDDDWGNIKMKNGMTVLMMGSADALPEEPSAKTVFVEDMTEEQLATAMELPCGLTNLGNTCYMNATVQCIRSVPELKDALKRYAGALRASGEMASAQYITAALRDLFDSMDKTSSSIPPIILLQFLHMAFPQFAEKGEQGQYLQQDANECWIQMMRVLQQKLEAIEDDSGRETDSSSAPAVTPSKKKSLIDQYFGVEFETTMKCTESEEEEVTKGKENQLQLSCFINQEVKYLFTGLKLRLQEEITKQSPTLQRNALYIKSSKISRLPAYLTIQMVRFFYKEKESVNAKVLKDVKFPLMLDVYELCTPELQEKMVSFRSKFKDLEDKKVNQQPNANDKNSPPKEIKYEPFSFADDIGSNNCGYYDLQAVLTHQGRSSSSGHYVSWVRRKQDEWIKFDDDKVSIVTPEDILRLSGGGDWHIAYVLLYGPRRVEIMEEESEQ
